Results reported in the RNAGym collection of RNA variant scans (doi:10.7554/elife.90254).

B1: OR4K15 (parent)
chain: GUUAACGGUCAUAGGCCAUGGAAACUAGGAGCACCAUUUCGCUGCCAGUGAAGAAAUGAACAAAGAAAAUCUGGGCCAGGCAGGCAUCAAAAGAAAUAGUCUUGCGCUCAACCAGAAAGUCUGUAAUCAUUUUAAGGGUA

Variants of: B1
Experiment: self-cleavage, relative activity (ratio to wild type); higher = more cleavage; in vitro, sequencing; the parent is a self-cleaving ribozyme

Variant	self-cleavage
A23U G29A	2.77
A22U A135G	0.4
A22G G48A	1.56
A23U A33U	1.17
A23U A67G	1.73
A22U G138U	2.01
A22U A24G	1.01
A22U A69C	0.47
A22U A69U	2.67
A22U A60G	1.29
A23G A30U	0.82
A23G A30G	1.1
A24C A91G	1.24
A23G A86U	1.25
A23G A86G	0.99
A23U A117G	1.14
A22G U39C	1.67
A22G U39A	1.39
A23G C113U	0.05
A24G A60U	1.08
A23G U127C	0.79
A23G U127G	1
A23U A86U	1.32
A23U A86G	0.48

Variant	self-cleavage
A23U U131C	1.02
A22U A126C	1.34
A23G G48U	0.73
A23G G48A	1.29
A24G A67U	1.32
A22U A66G	1.5
A24C A95U	2.22
A22G A86G	1.31
A24C A118C	0.84
A23G A118U	0.78
A23G A118G	0.75
A22G U38C	1.62
A23G A116G	0.47
A23G U97C	0.8
A23G U97A	1.48
A24G A68U	0.87
A23G A111U	0.23
A23G A111G	0.05
A23G A111C	0
A22U C121A	2.6
A23G U102C	1.87
A23G U87A	0.94
A23G U87C	0.61
A23G A126G	0.76

Variant	self-cleavage
A24C U70G	0.73
A23G U37C	1.03
A24G A54G	1.12
A24C U87C	1.44
A23U A129U	0.79
A23C G83A	2.28
A22G U131A	1.53
A22G A129G	0.61
A22G A129U	0.78
A23G A62G	0.87
A23G A62U	1.09
A23U A140G	1.38
A23U A140C	1.37
A22U A111G	0.02
A23G U39C	1.54
A23G A54G	0.6
A23U A135G	1.35
A23G A51U	1.22
A24G A59U	0.51
A22G U124G	0.96
A22U A91G	0.68
A23G A117G	1.2
A22G A63U	1.15
A23G G41C	1.01

Variant	self-cleavage
A23G A134U	0.77
A23G A134G	0.76
A23U G41C	2.09
A22G A134U	1.05
A23U A96G	1.59
A22G A140G	1.85
A22G A140U	0.8
A22G A69C	0.68
A23G G75A	0.19
A23U U43C	1.22
A24G A36C	1.51
A23C A27G	0.28
A22U U43A	2.1
A22U U43C	1.81
A24G A30U	1.29
A24C A59U	1.57
A22G A126U	0.92
A22G A126G	0.85
A23G A67G	1.11
A22U G123U	1.96
A24G A82C	0.25
A24G A82G	0.67
A23U A60G	1.24
A23G U108A	0.02

Variant	self-cleavage
A22U G53A	1.47
A22G A94G	0.92
A22G A94C	1.21
A24G A55G	0.67
A23G A27U	1.29
A22G G53C	1.81
A22G A68G	1.31
A23G A91C	1.49
A23G A91G	0.7
A24C A96G	1.72
A22G A116U	0.35
A22G A114U	0.08
A23G A98U	0.92
A23U A27G	1.16
A23U U87A	1.36
A23U U87C	1.08
A24C A98G	0.56
A23G U139C	1.26
A23G U122C	0.84
A22G U49C	0.55
A22G U49G	1.39
A22U A67G	1.87
A23G A55G	1.27
A24C U37C	1.29

Variant	self-cleavage
A22U	1.3
A24C A111G	0.01
A24C A117G	0.83
A22U U120C	0.48
A22U U120A	1.95
A22G U97G	1.42
A22G A89C	1.28
A23U A118G	0.66
A23U U102A	1.09
A23U G93A	1.85
A24C A27G	1.25
A22G A67C	1.6
A22G C76U	0.19
A22U A62U	1.58
A23G G80U	0.23
A24G A52G	1.44
A22G C34U	1.33
A23G U103A	0.75
A22U U57C	0.84
A23G U124C	0.69
A23G U124A	0.25
A22G U120A	1.22
A23G G65A	0.71
A24G A33U	1.73

Variant	self-cleavage
A24G A33G	0.85
A24G A27C	0.55
A24G A27G	0.97
A23G U43C	1.38
A22G A96C	1.58
A22G A96G	1.28
A23U U100C	2.74
A22G U132G	1.75
A23G G53A	1.7
A22U U87A	1.53
A22U U87C	0.88
A23G G136A	1.39
A23U U130C	0.7
A22U A96U	1.54
A22U A96G	1.57
A24G A56C	1.02
A24G A56U	0.97
A24G A56G	1.25
A23G G84U	0.21
A23G A69G	0.91
A22G G31U	0.75
A22G G31A	1.19
A22U A95G	0.94
A22U U49A	1.78

Variant	self-cleavage
A23G G50A	1.9
A23G G50U	0.79
A22G C109U	0
A22U A56G	1.16
A24G A62G	1.27
A24G A62U	1.12
A22G A110C	0.3
A22G A110G	0.08
A22G A110U	0.8
A24C A90G	0.69
A22U A30G	1.13
A23U U39C	1.27
A22G U37G	0.8
A22G U37A	2.01
A24C G123A	1.91
A23G U120C	0.96
A23G U120G	1.48
A23G U120A	0.47
A23U U124C	1.64
A24C A63G	1.94
A22G A98G	0.88
A22U A89G	1.31
A24G A69G	1.31
A22U A90G	0.91

Variant	self-cleavage
A23G G74A	0.14
A24G A47G	0.73
A24G A91G	0.65
A23G A24G	1.03
A23U A111G	0.04
A23G A129G	0.35
A23G A129C	0.82
A24G A86U	1.44
A24G A86C	0.43
A24C A62C	2.03
A22U A63G	1.45
A22U A63U	2.2
A24C U133A	1.76
A23G A96U	1.17
A23C A30G	0.62
A23G G115A	0.05
A24C A125U	2.07
A23U G137A	1.46
A23G A64U	1.2
A23G A64G	0.58
A23G A36G	1.43
A23G A36C	1.41
A24C A69G	1.24
A23U A78G	0.31

Variant	self-cleavage
A23G U72C	0.3
A22G U102G	1.05
A22G U102A	0.32
A22G U102C	1.56
A22G G136A	0.6
A23U G136A	0.85
A22G A118U	1.05
A22G U139A	1.14
A22G U139C	1.24
A23G U49C	0.9
A22G A125G	0.57
A24C U122C	1.49
A22U A36U	1.53
A22U A36G	1.48
A23U U103C	0.03
A24C C40A	1.99
A22U U72C	0.04
A22U U72A	0.21
A23G A60G	0.97
A22U U97C	0.69
A22G C32U	0.91
A24G A90U	1.65
A24G A90C	0.33
A24C U130C	0.42

Variant	self-cleavage
A23C A96G	1.33
A22G A90G	1.12
A23G A125G	0.4
A22U A116G	0.96
A22G A82U	0.36
A22G G44A	1.2
A23G C61U	1.24
A23G C61A	1.45
A23G C61G	1.12
A23G U131C	0.45
A22U U132A	1.7
A22G U127G	1.34
A22G U127A	2.2
A22G U127C	0.43
A23G A59G	1.11
A23G C32U	0.82
A23G A92G	1.17
A22G U57C	0.91
A22G G58A	0.55
A23U A51C	1.55
A22U A54G	1.46
A24C A47G	1.46
A23G A135G	1.13
A23G A135U	1.78

Variant	self-cleavage
A24C A64G	1.74
A24C A55G	1.52
A23G A110U	1.25
A23G A110G	0.11
A23U A66G	1.16
A23U U72A	0.41
A22U A23G	1.74
A23U A30G	1.09
A23U A30U	0.26
A23U A52G	1.2
A22U A94G	1.84
A23U A54U	1.61
A23U A54G	1.59
A22U U100C	2.44
A22U A117G	1.06
A24C A51U	1.33
A24C A114G	0.97
A22G A60G	0.94
A23U U108C	0.01
A23U C76A	0.23
A22U A27U	2.02
A23U U26C	1.23
A23G C46U	1.59
A24G A92G	1.19

Variant	self-cleavage
A23U U97G	1.35
A22G U103G	0.05
A22G U103A	0.41
A24C A33G	1.14
A22U U39C	0.34
A23U A47G	0.67
A23U A47U	1.04
A23G A89G	1.32
A23C C76A	0.13
A23U G115U	0.21
A22U U108C	0.03
A23C A62G	0.57
A24C A30U	0.99
A23G C101U	0.35
A22U A68G	0.93
A22G U70C	0.91
A23G A94C	1.14
A23G A94G	1.42
A24C U120C	1.13
A22U C25U	0.77
A22G A111G	0.05
A22G A111U	0.04
A24G A51C	0.87
A24C A56G	2.01

Variant	self-cleavage
A22G U100A	0.54
A22G U100C	1.69
A23G A90G	0.8
A22U A129C	1.58
A24C U103C	1.38
A22U A78U	0.33
A22G C81U	0.53
A24C A66U	1.03
A22G C46U	1.36
A23G G119A	1.38
A24C U132C	1.46
A23G A114G	0.54
A23G A114U	0.07
A24G A64G	1.01
A23U U49C	1.55
A23U U49A	1.2
A22U A51G	1.63
A23G A95U	2.26
A22G U108A	0.01
A24G A89C	1.51
A23G A82G	0.57
A23C U130C	0.85
